The chains are these.
B1: Flavin-containing monooxygenase 3 (Homo sapiens), P31513 (parent)
chain: MGKKVAIIGAGVSGLASIRSCLEEGLEPTCFEKSNDIGGLWKFSDHAEEGRASIYKSVFSNSSKEMMCFPDFPFPDDFPNFMHNSKIQEYIIAFAKEKNLLKYIQFKTFVSSVNKHPDFATTGQWDVTTERDGKKESAVFDAVMVCSGHHVYPNLPKESFPGLNHFKGKCFHSRDYKEPGVFNGKRVLVVGLGNSGCDIATELSRTAEQVMISSRSGSWVMSRVWDNGYPWDMLLVTRFGTFLKNNLPTAISDWLYVKQMNARFKHENYGLMPLNGVLRKEPVFNDELPASILCGIVSVKPNVKEFTETSAIFEDGTIFEGIDCVIFATGYSFAYPFLDESIIKSRNNEIILFKGVFPPLLEKSTIAVIGFVQSLGAAIPTVDLQSRWAAQVIKGTCTLPSMEDMMNDINEKMEKKRKWFGKSETIQTDYIVYMDELSSFIGAKPNIPWLFLTDPKLAMEVYFGPCSPYQFRLVGPGQWPGARNAILTQWDRSLKPMQTRVVGRLQKPCFFFHWLKLFAIPILLIAVFLVLT
partner: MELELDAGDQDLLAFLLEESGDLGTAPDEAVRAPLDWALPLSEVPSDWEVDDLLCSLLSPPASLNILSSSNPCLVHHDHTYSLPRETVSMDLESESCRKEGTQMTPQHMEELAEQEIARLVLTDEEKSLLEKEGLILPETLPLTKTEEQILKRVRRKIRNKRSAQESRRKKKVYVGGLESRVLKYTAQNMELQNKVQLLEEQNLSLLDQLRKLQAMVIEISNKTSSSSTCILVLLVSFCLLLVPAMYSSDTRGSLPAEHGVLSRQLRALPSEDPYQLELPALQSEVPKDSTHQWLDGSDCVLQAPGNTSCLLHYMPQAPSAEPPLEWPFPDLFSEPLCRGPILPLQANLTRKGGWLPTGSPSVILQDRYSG
B2: Golgin-45 (Homo sapiens), Q9H2G9 (parent)
chain: MTTKNLETKVTVTSSPIRGAGDGMETEEPPKSVEVTSGVQSRKHHSLQSPWKKAVPSESPGVLQLGKMLTEKAMEVKAVRILVPKAAITHDIPNKNTKVKSLGHHKGEFLGQSEGVIEPNKELSEVKNVLEKLKNSERRLLQDKEGLSNQLRVQTEVNRELKKLLVASVGDDLQYHFERLAREKNQLILENEALGRNTAQLSEQLERMSIQCDVWRSKFLASRVMADELTNSRAALQRQNRDAHGAIQDLLSEREQFRQEMIATQKLLEELLVSLQWGREQTYSPSVQPHSTAELALTNHKLAKAVNSHLLGNVGINNQKKIPSTVEFCSTPAEKMAETVLRILDPVTCKESSPDNPFFESSPTTLLATKKNIGRFHPYTRYENITFNCCNHCRGELIAL
partner: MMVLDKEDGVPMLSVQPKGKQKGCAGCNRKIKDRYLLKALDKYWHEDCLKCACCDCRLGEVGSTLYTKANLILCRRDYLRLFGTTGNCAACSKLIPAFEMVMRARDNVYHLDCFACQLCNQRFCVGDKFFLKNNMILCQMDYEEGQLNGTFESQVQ
B3: Conserved oligomeric Golgi complex subunit 2 (Homo sapiens), Q14746 (parent)
chain: MEKSRMNLPKGPDTLCFDKDEFMKEDFDVDHFVSDCRKRVQLEELRDDLELYYKLLKTAMVELINKDYADFVNLSTNLVGMDKALNQLSVPLGQLREEVLSLRSSVSEGIRAVDERMSKQEDIRKKKMCVLRLIQVIRSVEKIEKILNSQSSKETSALEASSPLLTGQILERIATEFNQLQFHAVQSKGMPLLDKVRPRIAGITAMLQQSLEGLLLEGLQTSDVDIIRHCLRTYATIDKTRDAEALVGQVLVKPYIDEVIIEQFVESHPNGLQVMYNKLLEFVPHHCRLLREVTGGAISSEKGNTVPGYDFLVNSVWPQIVQGLEEKLPSLFNPGNPDAFHEKYTISMDFVRRLERQCGSQASVKRLRAHPAYHSFNKKWNLPVYFQIRFREIAGSLEAALTDVLEDAPAESPYCLLASHRTWSSLRRCWSDEMFLPLLVHRLWRLTLQILARYSVFVNELSLRPISNESPKEIKKPLVTGSKEPSITQGNTEDQGSGPSETKPVVSISRTQLVYVVADLDKLQEQLPELLEIIKPKLEMIGFKNFSSISAALEDSQSSFSACVPSLSSKIIQDLSDSCFGFLKSALEVPRLYRRTNKEVPTTASSYVDSALKPLFQLQSGHKDKLKQAIIQQWLEGTLSESTHKYYETVSDVLNSVKKMEESLKRLKQARKTTPANPVGPSGGMSDDDKIRLQLALDVEYLGEQIQKLGLQASDIKSFSALAELVAAAKDQATAEQP
B4: Mediator of RNA polymerase II transcription subunit 18 (Homo sapiens), Q9BUE0 (parent)
chain: MEAPPVTMMPVTGGTINMMEYLLQGSVLDHSLESLIHRLRGLCDNMEPETFLDHEMVFLLKGQQASPFVLRARRSMDRAGAPWHLRYLGQPEMGDKNRHALVRNCVDIATSENLTDFLMEMGFRMDHEFVAKGHLFRKGIMKIMVYKIFRILVPGNTDSTEALSLSYLVELSVVAPAGQDMVSDDMKNFAEQLKPLVHLEKIDPKRLM
partner: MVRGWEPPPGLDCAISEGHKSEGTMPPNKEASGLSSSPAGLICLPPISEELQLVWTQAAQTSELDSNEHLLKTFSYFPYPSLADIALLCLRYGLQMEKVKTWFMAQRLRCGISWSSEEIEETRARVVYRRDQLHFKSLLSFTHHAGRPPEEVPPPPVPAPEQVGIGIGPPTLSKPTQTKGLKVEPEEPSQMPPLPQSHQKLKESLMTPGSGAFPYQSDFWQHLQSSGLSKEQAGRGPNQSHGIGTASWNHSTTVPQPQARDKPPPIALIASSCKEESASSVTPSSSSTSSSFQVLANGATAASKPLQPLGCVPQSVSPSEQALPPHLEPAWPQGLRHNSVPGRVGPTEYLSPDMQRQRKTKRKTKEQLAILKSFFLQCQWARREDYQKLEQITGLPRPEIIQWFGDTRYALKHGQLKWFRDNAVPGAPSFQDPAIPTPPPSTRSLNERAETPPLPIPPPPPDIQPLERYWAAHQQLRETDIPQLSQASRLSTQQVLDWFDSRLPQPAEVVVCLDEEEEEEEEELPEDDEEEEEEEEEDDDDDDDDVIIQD
B5: Protein BANP (Homo sapiens), Q8N9N5 (parent)
chain: MMSEHDLADVVQIAVEDLSPDHPVVLENHVVTDEDEPALKRQRLEINCQDPSIKTICLRLDSIEAKLQALEATCKSLEEKLDLVTNKQHSPIQVPMVAGSPLGATQTCNKVRCVVPQTTVILNNDRQNAIVAKMEDPLSNRAPDSLENVISNAVPGRRQNTIVVKVPGQEDSHHEDGESGSEASDSVSSCGQAGSQSIGSNVTLITLNSEEDYPNGTWLGDENNPEMRVRCAIIPSDMLHISTNCRTAEKMALTLLDYLFHREVQAVSNLSGQGKHGKKQLDPLTIYGIRCHLFYKFGITESDWYRIKQSIDSKCRTAWRRKQRGQSLAVKSFSRRTPNSSSYCPSEPMMSTPPPASELPQPQPQPQALHYALANAQQVQIHQIGEDGQVQVGHLHIAQVPQGEQVQITQDSEGNLQIHHVGQDGQLLEATRIPCLLAPSVFKASSGQVLQGAQLIAVASSDPAAAGVDGSPLQGSDIQVQYVQLAPVSDHTAGAQTAEALQPTLQPEMQLEHGAIQIQ
partner: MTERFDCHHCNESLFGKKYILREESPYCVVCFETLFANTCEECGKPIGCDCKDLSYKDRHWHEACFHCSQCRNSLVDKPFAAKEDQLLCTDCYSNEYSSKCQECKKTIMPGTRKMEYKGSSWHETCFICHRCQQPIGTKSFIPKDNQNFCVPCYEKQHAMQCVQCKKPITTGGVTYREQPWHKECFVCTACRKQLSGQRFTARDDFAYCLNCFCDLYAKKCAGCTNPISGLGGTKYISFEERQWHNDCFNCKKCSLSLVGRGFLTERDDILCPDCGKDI

Variants of B1 are the subject of one assay. The following applies: with creb3_human CREB3, O43889.
For G180V, the “effect of a mutation on the interaction” value is reported as “with no effect”.

Another assay covers variants of B2. The following applies: with rbtn1_human LMO1, P25800.
In the case of Q40R, the “effect of a mutation on the interaction” value is on record as “with no effect”.
With H45R, the “effect of a mutation on the interaction” value is reported as “with no effect”.

The variants in the next assay derive from B3. The following applies: with mtus2_human MTUS2, Q5JR59.
mtus2_human MTUS2, Q5JR59, sequence (Q5JR59 whole entry): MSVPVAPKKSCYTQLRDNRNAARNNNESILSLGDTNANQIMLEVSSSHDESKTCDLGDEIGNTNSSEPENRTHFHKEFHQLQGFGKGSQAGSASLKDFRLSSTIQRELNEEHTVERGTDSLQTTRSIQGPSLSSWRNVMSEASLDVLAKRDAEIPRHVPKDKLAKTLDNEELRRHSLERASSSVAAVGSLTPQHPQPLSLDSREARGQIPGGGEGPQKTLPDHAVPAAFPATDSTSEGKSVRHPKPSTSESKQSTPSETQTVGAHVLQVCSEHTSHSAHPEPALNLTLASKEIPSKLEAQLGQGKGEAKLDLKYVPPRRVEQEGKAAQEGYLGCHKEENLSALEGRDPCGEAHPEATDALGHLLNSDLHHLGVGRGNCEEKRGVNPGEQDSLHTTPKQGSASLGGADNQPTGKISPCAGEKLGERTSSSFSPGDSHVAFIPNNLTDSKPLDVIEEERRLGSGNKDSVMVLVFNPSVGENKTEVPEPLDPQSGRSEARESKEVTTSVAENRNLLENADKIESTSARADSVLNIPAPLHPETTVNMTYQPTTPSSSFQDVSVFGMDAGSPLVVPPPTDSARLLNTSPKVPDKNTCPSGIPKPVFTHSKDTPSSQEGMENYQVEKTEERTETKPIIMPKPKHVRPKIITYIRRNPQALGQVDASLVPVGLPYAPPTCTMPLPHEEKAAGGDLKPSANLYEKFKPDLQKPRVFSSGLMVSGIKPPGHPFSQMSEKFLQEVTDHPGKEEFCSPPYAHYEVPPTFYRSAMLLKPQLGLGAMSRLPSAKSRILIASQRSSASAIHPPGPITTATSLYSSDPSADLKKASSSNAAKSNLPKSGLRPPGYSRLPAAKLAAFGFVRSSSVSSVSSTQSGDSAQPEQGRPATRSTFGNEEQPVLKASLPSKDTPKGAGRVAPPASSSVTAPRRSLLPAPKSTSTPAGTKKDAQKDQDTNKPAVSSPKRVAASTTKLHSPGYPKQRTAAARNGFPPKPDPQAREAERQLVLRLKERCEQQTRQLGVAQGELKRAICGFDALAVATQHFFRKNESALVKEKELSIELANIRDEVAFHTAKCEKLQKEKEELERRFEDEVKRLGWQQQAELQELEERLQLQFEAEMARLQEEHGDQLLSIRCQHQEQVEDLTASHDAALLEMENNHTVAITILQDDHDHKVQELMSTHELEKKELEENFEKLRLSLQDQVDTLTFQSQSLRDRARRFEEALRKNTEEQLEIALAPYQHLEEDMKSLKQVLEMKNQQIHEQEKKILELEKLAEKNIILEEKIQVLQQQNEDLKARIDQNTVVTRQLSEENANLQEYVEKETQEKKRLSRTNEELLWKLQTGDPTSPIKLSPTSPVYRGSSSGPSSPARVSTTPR
As to V589I, the “effect of a mutation on the interaction” value is listed as “with no effect”.

In another assay the parent is B4. The following applies: with homez_human HOMEZ.
As to M19V, the “effect of a mutation on the interaction” value is listed as “with no effect”.

Variants of B5 are the subject of a further assay. The following applies: with fhl2_human FHL2, Q14192.
Turning to P348S, the “effect of a mutation on the interaction” value is “with no effect”.
